Data taken from the nanobody polyreactivity screen of Harvey et al. (2022).

Assay: yeast display, Sf9 membrane polyspecificity reagent, FACS + sequencing; frameworks hold sequencing errors
Method in brief: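 A nanobody's polyreactivity label depends on the gate it was sorted from. Yeast display cells were stained with 10% biotinylated, detergent-solubilized Sf9 membrane reagent for 1 hour at 4 °C, enriched on streptavidin microbeads and sorted by FACS. The low and high (top ~1%) gates were set on anti-HA fluorescence for expression and streptavidin fluorescence for reagent binding.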

QVQLVESGGCLVQAGGSLRLSCAASGYTIRYYSMGWYRQAPGKERELVAAISYSGGSTYYADSVKGRFTISRDNAKNTVYLQMNIMKPEDTAVYYCDAGFSLYLGFEYWGQGTQVTVSS
polyreactivity (PSR sort gate): high polyreactivity

QVQLVESGGGLVQAGGSLRLSCAASGSTFGYYAMGWYRQAPGKEREVVAALDSSGDTYYADSVKGRFTISRDNAKNTVYFQMNSLKPEDTAVYYCAADFWVSSYWGYGYWGQGTQVTVSS
polyreactivity (PSR sort gate): high polyreactivity

QVQLVESGGGLVQAGGSLRLSCAASGSIFAPYAMGWYRQAPGKERELVAAINNNGGRTYYADSVKGRFTISRDNAKNTVYLQMNSLKPEDTAVYYCAADIYPDWIYLLYGYWGQGTQVTVSS
polyreactivity (PSR sort gate): low polyreactivity

QVQRVESGGGLVQAGGSLRLSCAASGRTFVFYDMGWYRQAPGKERELVAAITSSGGRTYYADSVKGRFTISRDNAKNTVYLQMYRVKPEDTAVYYCAAPYYPYKYDSWGQGTQVTVSS
polyreactivity (PSR sort gate): low polyreactivity

QVQLVESGGGLVQAGGSLRLSCAASGSIFTYNGMGWYRQAPGKEREFVAAITWTGGSTYADSVKGRFTISRDNAKNTVYLQMNSLKPEDTAVYYCAAVRRISWYTPVNTRRYYYWGQGTQVTVSS
polyreactivity (PSR sort gate): high polyreactivity

HVQLVESAGGLVQAGGRLSLSCAAYGSICDRYAMGWYRQAPGKEREKVAAIYSSGGRTYYADSVKGRFTISRDNAKNTVYLQMKSLKPEDTAVYYCNAEFWGGTPVAFSADYEYWGQGTQVTVSS
polyreactivity (PSR sort gate): high polyreactivity

QVQLVESGGGLVQAGGSLRLSCAASGSIFDHTNAMGSYRQAPGKERELVAAITSGSSTNYADSVKGRFTISRDNAKKTVDLQMNSLKPEDTAVYYCNADRFHSGIFDYWGQGTQVTVSS
polyreactivity (PSR sort gate): low polyreactivity

QVQLVESGGGLVQAGGSLRLSCAASGSTFSRYAMGWYRPAPGKERELVAAISRSGGTTYYADSVKGRFTISRDNAKNTVYLQMNSLKPEDTAVYYCNARGRYEYGYWGQGTQVTVSS
polyreactivity (PSR sort gate): high polyreactivity

QVQLVESGGGLVQAGGSLRLSCAASGLIFAEYAMGWYRQAPGKERELVARITSGGSTDYADSVKGRFTISRDNAKNTVYLQMNSLKPEDTALYYCAARYYSQDNNASTASDFDYWGQGTQVTVSS
polyreactivity (PSR sort gate): low polyreactivity

QVQLVESGGGLVQAGGSLRFSCAASGRTLGYYTMGWYRQAPGKESELVATITPGGSTNYADSVKGRFTISRDHAKNTVYLQMNRLKPEDTAVYYCAKKKRRGYGYDYWGQGTQVTVSS
polyreactivity (PSR sort gate): high polyreactivity

QVQLVESGGGLVQAGGSLRLSCAASGSIFEPYTMGWYRQAPGKERELVAAITGSGCSKFYADSVKGRFTISRDNAKNTVYLQMNSLKPEDTGVYYCNAYAYPYTDVDYWGQGTQVTVSS
polyreactivity (PSR sort gate): low polyreactivity

QVQLVESVGGLVQAGGSLRLSCAASGGIFWVYAMGWYRQAPGKERELVAAISNSDTSTSYADSVKGRFTISRDNAKNTVYLQMNSLKPEDTAVYYCNADSPSLSGDYWGQGTQVTVSS
polyreactivity (PSR sort gate): low polyreactivity

QVQLEESGGGVVQAGGSLRLSCAASGRTFRWYAMGWYRQAPGKERELVATINSGGTTNYADSVKGRFTISRDNAKNTVYLQMNSLKPEDTAVYYCAATNRGPGHDYWGQGTQVTVSS
polyreactivity (PSR sort gate): low polyreactivity

QVQLVESGGGLVQAGGSLRLSCAASGFIFRYNAMGWYRQAPGKERELVAAISSGGSTNYADSVKGRFTISRDNAKNTVYLQMNSLKPEDTAVYYCAADVEQYYPLLTFDFWGQGTQVTVSS
polyreactivity (PSR sort gate): low polyreactivity

QVQLVESGGGLVQAGGSLRLSCAASGSTLFDYTMGWYRQAPGNVRELVAAISSSGITDYADSVKGRFTISRDNAQNTVYLQMNSLKPDETAVYYCNARSQKATRYDYWGQGTQVTVSS
polyreactivity (PSR sort gate): high polyreactivity

QVQLVESGGGLVQAGGSLRLSCAASGLTFNTSAMGWSRQAPGKEREWVAAITSSGSITYYADSVKGRFTISRDNAKNTVYLQMNSLKPEDTAVYYCAAAVGYYAFGTYPFDDWPYDYWGQGTQVTVSS
polyreactivity (PSR sort gate): high polyreactivity

QVQLVESGGGLVQAGGSLRLSCAASGSTFGYYAMGWYRQAPGKERELVAVITRGGSTYYADSVKGRFTISRDNAKNTVYLQLNSLKPEDTAVYYCNARVQAVHYGYWGQGTQVTVSS
polyreactivity (PSR sort gate): high polyreactivity

QVQLVESGGGFVQAGGSLRLSCAASGSIFRFYAMGWYRQAPGKERELVASITSGGSTNYADSVKGRFTISRDNAKNTVYLQMNSLKPEDTAVYYCAVRLKGYRRRDYWGQGTQVTVSS
polyreactivity (PSR sort gate): high polyreactivity

QVQLVESGGGLVQAGGSLRLSCAASGITFYPYAMGWYRQAPGKERELVAAISFSGGSTYYADSVKGRFTISRDNAKNTVYLQMNSLKPEDTAVYYCAADRRSGDDYWGQGTQVTVSS
polyreactivity (PSR sort gate): high polyreactivity

QVQLVESGGGLVQAGGSLRLSCAASGFNFYGYAMGWYRQAPGKERQLVATISRGGSTTYYADSVKGRFTISRDNAKNTVYLQMNSLKPEDTAVYYCAAYNVIYTRRMYYWGQGTQVTVSS
polyreactivity (PSR sort gate): high polyreactivity

QVQLVESGGGLVQAGGSLRLSCAASGRIFVFYVMGWYRQAPGKERELVAAITRTGGSTYYADSVKGRFTISRDNAKNTVYLQMNSLKPEDTAVYYCATRYTRLRHFDYWGQGTQVTVSS
polyreactivity (PSR sort gate): low polyreactivity

QVQLVESVGGLVQAGGSLRLSCAASGRTFYYYTMGWYRQAPGKEWELVAAISSTGNTYYADSVKGRFTISRDNAKNTVYLHMISLQPEDTAVYYCAALGYVKLLAQAYEYWGHGTQVTVSS
polyreactivity (PSR sort gate): high polyreactivity

QVQLVESGGGLVQAGGSLRLSCAASGNIFLYYAMGWYRQAPGKERELVADIDSSGASTYYADSVKGRFTMSRDNAKNTVYLQMNSLKPEDTAVYYCAAEFHWWYAGYDYGYWGQGTQVTVSS
polyreactivity (PSR sort gate): low polyreactivity

QVQIVESGGGLVQAGGSLRLSCAASGSTSWSNAMGWYRQAPRKERELVAAITTGASTYYADSVKGRFTISRDNSKNTVYLQMNSLKLEDTAVYYCAADPWVLWSYYYWGQGTQVTVSS
polyreactivity (PSR sort gate): low polyreactivity

QVHLVESGGGLVQAGGSLRLSCAASGIIFSTYAMGWYRQAPGKERELVAAITSTGSTNYADSVKGRFTISRDNAKNTVYLQINRLKQEDTAVYYCAARYAGPSPTDTGHDYWGQGTQVTVSS
polyreactivity (PSR sort gate): low polyreactivity

QVQLEESGGGLVQAGGTLRLSCAASGGIIVSYAMGWYRPAPRKERELVAAITSGGGTSYADSVKGRFTISRDNAKNTVYLQLNSLKPEDTAVYYCNADGYLAERFVIRLVEFRDYDYWGQGTQVTVSS
polyreactivity (PSR sort gate): low polyreactivity

QVQLVESGGGLVQAGGSLRLSCAASGRTFPFYAMGWYRQAPGKEREFVAAITASGDSTYYADSVKGRFTISRDNAKNTVYLQMNSLKPEDTAVYYCAADLPVWYVTRYDYWGQGTQVTVSS
polyreactivity (PSR sort gate): low polyreactivity

QVQLVESGGGLVQAGGSLRVSCAASGSIFRFNVMGWYRQAPGKERELVAAITRGDSTNYADSVKGRFTISRDNAKNTVYLQMNSLKPEDTAVYYCAAGYYYYLRDHDYWGQGTQVTVSS
polyreactivity (PSR sort gate): low polyreactivity

QVQLVESGGGLVQAGGSLRLSCAASGFIFGYYVMGLYTQAPGKERELVAAITTSGGSTYYADSVKGRFTISRDNAKNTVYLQMNSLKPEDTAVYYCAADGSPSLLDYWGQVTQVTVSS
polyreactivity (PSR sort gate): high polyreactivity

QVQLVESGGGLVQAGGSLRLSCAASGSIFRVYAMGWYRQAPGKERELVAAISWGRGTTYYADSVKGRFTISRDNAKNTVYLQMTSLKPEDTAVYYCAAGGVGAYDYWGQGTQVTVSS
polyreactivity (PSR sort gate): high polyreactivity

QVQLVESGGGLVQAGGSLRLSCAASGSIFRYYAMGWYRQAPGKERELVAAITGRGGSTYYADSVKGRFTISRDNAKNTVYLQMNSLKPEDTAVYYCADYIDANVHRFDYWGQGTQVTVSS
polyreactivity (PSR sort gate): low polyreactivity

QVQLVESGGGLVQAGGSLRLSCAASGRIFDRNAMVWYRQEPWKERELVAAIDDSGGDTSYADSVKGRFTISRDNAKNTVYLQMNSLKPEDTAVYYCNAGYADFVTYPRYYYWGQGTQVTLSS
polyreactivity (PSR sort gate): low polyreactivity

QVQLVESGGGLVQAGGSLRLICAASGLTFVHNAMGWYRQAPGKERELVAAISSSGGRTYYADSVKARFTISRDNAKNTVYLQMNSLKPEDTAVYYCNKAAFNYYLYGYWGQGTQVTVSS
polyreactivity (PSR sort gate): high polyreactivity

QVQLVESGGGLVQAGGSLRLSCAASGRTFSNNAMGWYRQAPGKERELVADITYSSDSTYYADSVKGRFTISRDNAKNTVYLQMNCLKPEDTAVYYCAADVVVGGSGSEYYYWGQGTQVTVSS
polyreactivity (PSR sort gate): low polyreactivity

QVQLVESGGGLVQAGGSLRLSCAASGRIFRQNAMGWYRQAPGKERELVAAISRSGGSTYYADSVKGRFTISRDNAKNTVYLQMNSLKPEDTAVYYCAADVHTPALYTYAAGDYWGQGTQVTVSS
polyreactivity (PSR sort gate): low polyreactivity

QVQLVESGGGLVQAGGSLRLSCAASGRIFAKNAMGWYRQAPGKERELVAAISGSGGSTYYADSVKGRFTISRDNAKNTVYLQMNSLKPDDTAVYYCAATRGPNYRNGYWGQGTQVTVSS
polyreactivity (PSR sort gate): high polyreactivity

QVQLVESGGGLVQAGGSLRLSCAASGFIFTSYALGWYRQAPGKEREFFAAISRRGGSTYYADSVKGRFTISRDNAKNTVYLQMNSLKPEDTAVYYCAADPKQHSGYDYWGQGTQVTVSS
polyreactivity (PSR sort gate): high polyreactivity

QVQLVESGGGLVQAGGSLRLSCAASGLILYWYAMGWYRQAPGKERELVAAISISGGSTYYADSVKGRFTISRDNAKNTVYLQMNSLKPEDTAVYYCAAVYFYSWEGDGDYWGQGTQVTVSS
polyreactivity (PSR sort gate): low polyreactivity

QVQLVESGGGLVQAGCSLRLSCAASGSTFFPNGMGWYRQAPGKERELVAAITQDGGSTYYADSVKGRFTISRDNAKNTVYLQMNSLKPEDTAVYYCAASAGPYYEYGYWGQGTQVTVSS
polyreactivity (PSR sort gate): low polyreactivity

QVQLVESGGGLVQAGGSLRLSCAASGSIFYFNAMGWYRQAPGKERELVAAISTSGGSTYADSVKGRFTISRDNAKNTVYLQMNSLKPEDTAVYYCAADYLTSRSRTFDYWGQGTQVTVSS
polyreactivity (PSR sort gate): low polyreactivity

QVQLVESGGGLVQAGGSLRLSSAASGSTYFTYAMGWYRQAPGKERELVAAISWSGGTTYYADSVKGRFTISRDNAKNTVYLQMNSLKPEDTAVYYCASARDGILKANDYWGQGTQVTVSS
polyreactivity (PSR sort gate): low polyreactivity

QVQLVESGGGLVHAGGSLRLSCAASGFTFGDNAMGSYRQAPGKERELVADIDSDGSTYYADSVKGRFTISRDNAKNTVYLQMNSLKPEDTAVYYCAKRQAFKQAPYEYWGQCTQVTVSS
polyreactivity (PSR sort gate): low polyreactivity

QVQLVESGGGLVQAGGSLRLSCAASGSTFRWNAMGWYRQAPGKERELVATITWGGGSTYYADSVKGRFTISRDNAKNTVYLQMNSLKPEDTAVYYCARRKRARYSYYQYNYWGQGTQVTVSS
polyreactivity (PSR sort gate): high polyreactivity
